Assay results from US20150175708A1 (Eli Lilly, published 2015).

B1: anti-MET/EGFR multifunctional antibody NH-YK (bispecific antibody, human IgG4 S228P, kappa, F234A L235A)
heavy: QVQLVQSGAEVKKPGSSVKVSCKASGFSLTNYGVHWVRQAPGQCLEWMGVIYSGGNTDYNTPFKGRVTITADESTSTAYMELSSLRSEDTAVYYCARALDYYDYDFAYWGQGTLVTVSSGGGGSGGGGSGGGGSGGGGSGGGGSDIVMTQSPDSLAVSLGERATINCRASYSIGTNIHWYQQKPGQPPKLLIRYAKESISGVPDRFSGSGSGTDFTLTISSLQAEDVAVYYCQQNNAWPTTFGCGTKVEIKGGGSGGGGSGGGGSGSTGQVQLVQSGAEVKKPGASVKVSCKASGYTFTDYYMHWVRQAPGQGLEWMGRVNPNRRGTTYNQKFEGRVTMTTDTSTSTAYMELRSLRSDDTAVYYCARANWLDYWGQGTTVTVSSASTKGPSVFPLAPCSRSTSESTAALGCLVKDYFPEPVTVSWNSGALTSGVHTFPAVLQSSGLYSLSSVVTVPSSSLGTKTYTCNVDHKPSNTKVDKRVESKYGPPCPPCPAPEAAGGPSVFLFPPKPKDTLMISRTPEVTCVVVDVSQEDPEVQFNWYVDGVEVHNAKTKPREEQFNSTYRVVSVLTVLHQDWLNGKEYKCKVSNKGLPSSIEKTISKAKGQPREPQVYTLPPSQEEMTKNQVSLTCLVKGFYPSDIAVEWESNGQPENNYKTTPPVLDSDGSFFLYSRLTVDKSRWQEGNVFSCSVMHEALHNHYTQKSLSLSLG
light: DIQMTQSPSSLSASVGDRVTITCSVSSSVSSIYLHWYQQKPGKAPKLLIYSTSNLASGVPSRFSGSGSGTDFTLTISSLQPEDFATYYCQVYSGYPLTFGGGTKVEIKRTVAAPSVFIFPPSDEQLKSGTASVVCLLNNFYPREAKVQWKVDNALQSGNSQESVTEQDSKDSTYSLSSTLTLSKADYEKHKVYACEVTHQGLSSPVTKSFNRGEC
notes: Tetravalent: anti-MET C8-H241 human IgG4 with an anti-EGFR YK scFv fused by a glycine-rich linker to the N-terminus of each heavy chain
B2: anti-MET/EGFR multifunctional antibody H9 (bispecific antibody, human IgG4 S228P, kappa, F234A L235A)
heavy: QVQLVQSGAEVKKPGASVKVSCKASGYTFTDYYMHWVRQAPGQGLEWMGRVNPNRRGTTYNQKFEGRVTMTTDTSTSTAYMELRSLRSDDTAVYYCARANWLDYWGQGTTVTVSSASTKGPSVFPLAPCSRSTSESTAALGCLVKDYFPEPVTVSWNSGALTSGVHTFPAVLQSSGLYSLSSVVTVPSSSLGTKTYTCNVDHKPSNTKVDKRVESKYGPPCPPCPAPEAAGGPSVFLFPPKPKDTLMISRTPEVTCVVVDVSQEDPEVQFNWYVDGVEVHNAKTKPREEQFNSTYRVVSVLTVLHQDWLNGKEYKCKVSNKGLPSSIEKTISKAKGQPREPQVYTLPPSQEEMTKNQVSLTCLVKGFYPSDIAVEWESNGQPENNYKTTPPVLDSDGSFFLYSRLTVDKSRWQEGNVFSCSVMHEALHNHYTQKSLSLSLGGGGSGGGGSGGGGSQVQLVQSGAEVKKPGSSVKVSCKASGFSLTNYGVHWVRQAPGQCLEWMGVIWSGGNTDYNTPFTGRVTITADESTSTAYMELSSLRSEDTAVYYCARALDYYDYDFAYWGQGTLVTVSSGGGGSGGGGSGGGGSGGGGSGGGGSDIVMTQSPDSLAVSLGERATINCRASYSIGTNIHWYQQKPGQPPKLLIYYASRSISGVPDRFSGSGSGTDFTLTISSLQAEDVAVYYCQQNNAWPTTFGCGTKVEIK
light: B1 light
notes: Tetravalent: anti-MET C8-H241 human IgG4 with an anti-EGFR H9 scFv fused to the heavy chain C-terminus
B3: anti-MET/EGFR multifunctional antibody YK (bispecific antibody, human IgG4 S228P, kappa, F234A L235A)
heavy: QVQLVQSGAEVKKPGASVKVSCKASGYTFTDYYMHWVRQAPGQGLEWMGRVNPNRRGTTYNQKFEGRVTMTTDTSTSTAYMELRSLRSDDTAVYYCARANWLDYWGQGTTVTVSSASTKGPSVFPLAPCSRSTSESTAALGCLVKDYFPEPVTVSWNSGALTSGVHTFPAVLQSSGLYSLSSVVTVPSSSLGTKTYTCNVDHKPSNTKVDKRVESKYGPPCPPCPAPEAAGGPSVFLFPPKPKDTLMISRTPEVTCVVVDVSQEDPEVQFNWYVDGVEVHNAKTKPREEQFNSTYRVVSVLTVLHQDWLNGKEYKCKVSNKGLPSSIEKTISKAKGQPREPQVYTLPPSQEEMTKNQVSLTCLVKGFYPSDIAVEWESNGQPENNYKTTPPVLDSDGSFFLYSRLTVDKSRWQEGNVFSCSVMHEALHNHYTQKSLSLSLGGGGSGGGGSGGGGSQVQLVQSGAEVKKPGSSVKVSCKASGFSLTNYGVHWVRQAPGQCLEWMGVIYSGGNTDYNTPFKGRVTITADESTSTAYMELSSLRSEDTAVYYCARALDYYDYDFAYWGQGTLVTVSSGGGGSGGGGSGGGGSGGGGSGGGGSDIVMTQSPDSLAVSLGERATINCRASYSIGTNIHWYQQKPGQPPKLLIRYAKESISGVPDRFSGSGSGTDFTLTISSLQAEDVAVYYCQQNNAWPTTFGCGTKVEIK
light: B1 light
notes: Tetravalent: anti-MET C8-H241 human IgG4 with an anti-EGFR YK scFv fused to the heavy chain C-terminus
B4: anti-MET/EGFR multifunctional antibody NH-H9 (bispecific antibody, human IgG4 S228P, kappa, F234A L235A)
heavy: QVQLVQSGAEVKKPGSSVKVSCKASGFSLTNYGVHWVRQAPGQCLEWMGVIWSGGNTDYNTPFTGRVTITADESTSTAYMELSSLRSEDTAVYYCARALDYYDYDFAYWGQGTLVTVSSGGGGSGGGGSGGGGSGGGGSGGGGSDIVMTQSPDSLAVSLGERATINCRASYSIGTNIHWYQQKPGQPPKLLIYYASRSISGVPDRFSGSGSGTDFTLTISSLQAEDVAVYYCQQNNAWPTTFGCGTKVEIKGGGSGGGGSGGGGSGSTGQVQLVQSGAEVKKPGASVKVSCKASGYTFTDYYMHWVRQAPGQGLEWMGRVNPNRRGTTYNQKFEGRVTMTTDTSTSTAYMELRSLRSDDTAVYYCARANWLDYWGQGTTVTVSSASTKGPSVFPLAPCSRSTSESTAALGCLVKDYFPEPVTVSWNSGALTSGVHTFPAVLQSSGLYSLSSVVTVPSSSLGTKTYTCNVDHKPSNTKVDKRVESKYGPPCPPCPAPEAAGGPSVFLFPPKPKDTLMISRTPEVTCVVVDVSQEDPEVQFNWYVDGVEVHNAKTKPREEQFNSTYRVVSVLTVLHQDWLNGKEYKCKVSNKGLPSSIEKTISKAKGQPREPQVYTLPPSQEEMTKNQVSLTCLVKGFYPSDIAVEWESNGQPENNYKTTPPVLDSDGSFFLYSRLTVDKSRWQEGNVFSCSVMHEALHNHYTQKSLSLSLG
light: B1 light
notes: Tetravalent: anti-MET C8-H241 human IgG4 with an anti-EGFR H9 scFv fused to the N-terminus of each heavy chain

What was measured:
[1] = molecular target: T1, MET on the cell surface of human tumor cell lines (human, UniProt P08581 25-1390); assay: cell-based or functional assay
[2] = molecular target: T1, MET on the cell surface of human tumor …; assay: cell-based or functional assay; remark: listed apart in the source
[3] = molecular target: EGFR on the cell surface of human tumor cell lines (human, UniProt P00533 25-1210); assay: cell-based or functional assay
[4] = molecular target: extracellular domain of human MET (MET-ECD) (human, UniProt P08581 25-932); assay: SPR (Biacore), antibody captured on protein A chip, MET-ECD in solution, 25 C, 1:1 model
[5] = molecular target: T2, human EGFR extracellular domain (EGFR-ECD) (human, UniProt P00533 25-645); assay: SPR (Biacore), antibody captured on protein A chip, EGFR-ECD in solution, 25 C, 1:1 model
T2 construct: extracellular domain; also called human EGFR-ECD

T1 sequence (P08581 25-1390): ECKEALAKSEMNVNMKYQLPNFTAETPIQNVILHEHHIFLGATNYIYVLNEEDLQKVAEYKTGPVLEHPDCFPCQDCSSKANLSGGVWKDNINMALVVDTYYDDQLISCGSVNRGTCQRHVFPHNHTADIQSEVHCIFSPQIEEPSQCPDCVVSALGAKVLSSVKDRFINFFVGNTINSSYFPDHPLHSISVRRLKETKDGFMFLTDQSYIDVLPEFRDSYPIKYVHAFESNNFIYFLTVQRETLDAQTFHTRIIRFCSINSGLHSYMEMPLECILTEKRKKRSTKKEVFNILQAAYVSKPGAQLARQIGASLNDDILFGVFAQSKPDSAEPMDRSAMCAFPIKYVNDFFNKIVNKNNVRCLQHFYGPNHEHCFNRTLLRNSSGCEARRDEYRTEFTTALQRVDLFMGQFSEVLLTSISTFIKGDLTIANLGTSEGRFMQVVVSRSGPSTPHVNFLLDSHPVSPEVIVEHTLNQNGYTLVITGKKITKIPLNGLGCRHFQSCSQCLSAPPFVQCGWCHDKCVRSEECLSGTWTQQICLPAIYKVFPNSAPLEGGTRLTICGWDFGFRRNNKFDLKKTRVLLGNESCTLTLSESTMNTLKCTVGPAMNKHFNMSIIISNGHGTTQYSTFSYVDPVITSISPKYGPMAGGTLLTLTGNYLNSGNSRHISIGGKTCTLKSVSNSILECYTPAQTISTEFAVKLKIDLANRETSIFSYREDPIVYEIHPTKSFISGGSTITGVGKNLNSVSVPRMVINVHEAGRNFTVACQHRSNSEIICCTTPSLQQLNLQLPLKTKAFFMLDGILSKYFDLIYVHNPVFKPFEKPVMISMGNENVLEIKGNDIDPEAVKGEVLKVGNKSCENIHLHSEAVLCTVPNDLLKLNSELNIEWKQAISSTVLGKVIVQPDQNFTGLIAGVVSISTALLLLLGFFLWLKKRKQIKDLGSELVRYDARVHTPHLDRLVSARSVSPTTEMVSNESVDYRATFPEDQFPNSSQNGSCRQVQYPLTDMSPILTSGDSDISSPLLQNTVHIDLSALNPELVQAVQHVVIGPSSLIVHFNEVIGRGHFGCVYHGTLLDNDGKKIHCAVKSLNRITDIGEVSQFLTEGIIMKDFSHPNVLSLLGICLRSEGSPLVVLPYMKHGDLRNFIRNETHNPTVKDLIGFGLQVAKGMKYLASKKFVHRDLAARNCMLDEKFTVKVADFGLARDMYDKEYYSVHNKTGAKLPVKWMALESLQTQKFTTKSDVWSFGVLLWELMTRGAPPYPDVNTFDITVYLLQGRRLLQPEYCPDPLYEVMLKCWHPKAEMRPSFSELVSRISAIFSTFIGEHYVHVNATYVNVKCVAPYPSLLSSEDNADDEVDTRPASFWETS

Binder	average % of cell viability (CellTiter-Glo), H596 cells + 50 ng/mL HGF, antibody 0.4 nM [2] [%]	average % of cell viability (CellTiter-Glo), H596 cells + 50 ng/mL HGF, antibody 1.2 nM [2] [%]	average % of cell viability (CellTiter-Glo), H596 cells + 50 ng/mL HGF, antibody 3.7 nM [2] [%]	average % of cell viability (CellTiter-Glo), H596 cells + 50 ng/mL HGF, antibody 11.1 nM [2] [%]	average % of cell viability (CellTiter-Glo), H596 cells + 50 ng/mL HGF, antibody 33.3 nM [2] [%]	average % of cell viability (CellTiter-Glo), H596 cells + 50 ng/mL HGF, antibody 100 nM [2] [%]	average % of cell viability, H1666 cells, antibody 0.02 nM [3] [%]	average % of cell viability, H1666 cells, antibody 0.05 nM [3] [%]	average % of cell viability, H1666 cells, antibody 0.14 nM [3] [%]	average % of cell viability, H1666 cells, antibody 0.41 nM [3] [%]	average % of cell viability, H1666 cells, antibody 1.23 nM [3] [%]	average % of cell viability, H1666 cells, antibody 3.70 nM [3] [%]	average % of cell viability, H1666 cells, antibody 11.11 nM [3] [%]	average % of cell viability, H1666 cells, antibody 33.33 nM [3] [%]	Kd [4] [nM]	koff [4] [s⁻¹]	kon [4] [M⁻¹ s⁻¹]	Kd [5] [nM]	koff [5] [s⁻¹]	kon [5] [M⁻¹ s⁻¹]	also measured
B1	113	108	104	107	101	102	106	105	87.2	65.5	45.6	36.9	31.9	27.9	0.84	6.3e-05	75000	0.19	0.00075	4e+06	% cell surface MET remaining, H441 cells, 50 nM antibody overnight, FACS [1]: 58%; AVG of MFI (staining of cell surface MET), H441 cells, 50 nM antibody overnight, FACS [1]: 44.9 MFI; average % of cell viability, H1666 cells, antibody 100 nM [3]: 26.4%
B2	–	–	–	–	–	–	–	–	–	–	–	–	–	–	1.15	0.000109	95000	0.32	0.00018	570000	–
B3	–	–	–	–	–	–	–	–	–	–	–	–	–	–	0.26	3.3e-05	126000	0.44	0.00057	1.3e+06	–
B4	107	102	103	105	102	102	105	100	77.8	52.9	38.6	31.6	26.6	24.1	0.75	7.9e-05	105000	0.1	0.00018	1.8e+06	average % of cell viability, H1666 cells, antibody 100 nM [3]: 23.1%
